Literature values, collected in publication PMC3824636.

Columns and labels:
Cys149 [1] = target: Cys149 (UniProt position 156, VSNASCTTNCL); assay: chemical modification or UV-vis (listed collectively, not mapped to individual values); settings: not stated (apo or holo not specified)
Cys149 [2] = target: Cys149 (UniProt position 150, VSNASCTTNCL); assay: as above; settings: not stated (apo or holo not specified)
Cys149 [3] = target: Cys149 (UniProt position 152, ISNASCTTNCL); assay: as above; settings: not stated (apo or holo not specified)
Cys302 = assay: chemical modification (described only as 'titration of Cys-302')

Substance: Cytoplasmic glyceraldehyde-3-phosphate dehydrogenase GAPC1 (Arabidopsis thaliana)
- pKa (Cys149 [1]): 5.7

Substance: Glyceraldehyde-3-phosphate dehydrogenase (GAPDH) (Escherichia coli)
- pKa (Cys149 [2]): ~5.7

Substance: Glyceraldehyde-3-phosphate dehydrogenase (GAPDH) (Geobacillus stearothermophilus (Bacillus stearothermophilus))
- pKa (Cys149 [3]): 5.9

Substance: Glyceraldehyde-3-phosphate dehydrogenase (GAPDH), pig liver as stated (Sus scrofa)
- pKa (Cys149 [2]): 5.5

Substance: Non-phosphorylating NADP-dependent glyceraldehyde-3-phosphate dehydrogenase (GAPN) (Streptococcus mutans)
- pKa (Cys302; NADP+-bound (holo-enzyme)): 6.1
- pKa (Cys302; apo-enzyme (no cofactor)): 8.5
